Target: T1, ヒンジ領域組換えタンパク質 (LGR6 hinge region partial protein, amino acids 446-567, with Trx-, S- and His-tags) (Homo sapiens (Human), UniProt Q9HBX8 446-567)
T1 construct: Used as immunogen and as ELISA antigen; also called LGR6のヒンジ領域部分タンパク質; hinge region recombinant protein; not shown: N-terminal Trx-, S- and His-tag from the pET32b vector; C-terminal His-tag from the pET32b vector
T1 sequence: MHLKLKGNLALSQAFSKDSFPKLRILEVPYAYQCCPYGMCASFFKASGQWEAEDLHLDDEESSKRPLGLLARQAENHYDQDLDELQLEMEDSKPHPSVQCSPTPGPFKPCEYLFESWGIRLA
Assay: Ag-ELISA, hybridoma culture supernatant on coated protein

B1: m164抗体 (anti-LGR6 mouse monoclonal antibody produced by hybridoma clone 164) (antibody, V domains shown)
VH: EVQLQQSGPELVKPGASVKISCKTSGYTFTEYTMHWVKQSHGKSLEWIGGINPYNRVSSYNQRFKGKATLTVDKSSSTAYMELRSLTSEDSAVYYCARRYDVFDSWGQGTTLTVSS
VL: DIVMSQSPSSLAVSVGEKVSMSCKSSQSLLYSSNQKNYLAWYQQKPGQSPKLLISWASTRESGVPARFTGSGSGTDFTLTISSVRAEDLAVYYCQQHFNYPYTFGGGAKLEMK
notes: Tested as the mouse antibody from the hybridoma (culture supernatant or Protein G purified); the primers used were for mouse IgG1 CH and mouse kappa light chain; also called m164; LGR6抗体m164
B1: binds.

Source: patent publication JP2018158894A (dated 2018)
